Results taken from patent US20170021005A1.

Molecular target: PltB pentamer (B subunit of typhoid toxin, as in the crystal structure) (Salmonella enterica serovar Typhi)
Assay: interface analysis of the crystal structure (computed)

## PltA (subunit of typhoid toxin, as in the crystal structure) (enzyme)
  buried surface: 1660 Å^2
  ΔiG (printed "ÅiG"): -17.7 kcal/mol
